Laboratory results: patent US20260265352A1, “STABLE PHARMACEUTICAL FORMULATION COMPRISING ANTI-GREMLIN1 ANTIBODY” (SUZHOU TRANSCENTA THERAPEUTICS CO., LTD., priority 2022, published 2026)
Values belong to the molecule of their own block, whether it stands above or below them.

Tests used:
[1] = system: esophageal cancer PDX model E7; experiment: Tumor growth inhibition in esophageal cancer PDX model; format: in vivo, NOD/SCID mice; settings: 26th day; antibody 20 mg/kg i.p. twice a week, cisplatin 3 mg/kg i.v. once a week, 4 weeks
Text: Human gremlin IHC specifically positive esophageal tumor tissue (E7) was obtained from Beijing Cancer Hospital passage in NOD/SCID mice and established PDX bank. […] Each mouse was subcutaneously inoculated with a small tumor tissue block approximately 3 mm in diameter which sheared from integrated tumor decollement form a tumor bearing mouse. 18 days after inoculation animals with tumor size at about 70 mmn^3 were selected and randomly divided into 4 groups, each group consisting of 8 mice. Then the mice were treated with isotype control+PBS, the anti-GREM1 antibody of the present disclosure at dose of 20 mg/kg, Cisplatin at dose of 3 mg/kg and combination of the anti-GREM1 antibody of the present disclosure and Cisplatin. Isotype control and the anti-GREM1 antibody of the present disclosure were administrated twice a week for 4 weeks by i.p. injection and PBS, while Cisplatin was administrated once a week for 4 weeks by i.v. injection. Animals were sacrificed at the end of the study with CO2 inhalation. Tumor size was measured twice or triple times a week in two dimensions using a caliper (INSIZE) and the volume was expressed in mmA3 using the formula: V=0.5 a*b^2 where a and b are the long and short diameters of the tumor, respectively. Results were analyzed using Prism GraphPad and expressed as mean±S.E.M. Comparisons between two groups were made by T-test, and the difference is considered significant if p is *<0.05 and **<0.01.

[2] = biological target: T1, human Gremlin/GREM1 protein (Acro) (human, UniProt O60565 25-184); experiment: BLI (ForteBio), human GREM1-his on NTA biosensor, antibody at 100, 50 and 25 nM
T1 construct: Bought protein (ACRO); also called hGREM1 (ACRO); human GREM1; not shown: his tag
T1 sequence (looked up): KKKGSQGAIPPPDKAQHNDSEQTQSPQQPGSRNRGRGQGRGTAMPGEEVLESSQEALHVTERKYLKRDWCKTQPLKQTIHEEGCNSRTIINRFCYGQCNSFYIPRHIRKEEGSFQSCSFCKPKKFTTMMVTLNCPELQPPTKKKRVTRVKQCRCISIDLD
Procedure: (§1) The concentration of 0 nM was used as a reference control. The antibody to be tested was diluted to a concentration of 100 nM, 50 nM and 25 nM with a ForteBio kinetic buffer (including PBS with a pH value of 7.4, 0.1% of BSA and 0.002% of Tween-20). […] Then, dissociation was performed in a kinetic buffer for 90 seconds to obtain Koff factor data.

[3] = biological target: T1, human Gremlin/GREM1 protein (Acro); experiment: BLI (ForteBio), human GREM1-his on NTA biosensor
Procedure: as §1

[4] = biological target: T1, human Gremlin/GREM1 protein (Acro); experiment: ELISA, coated hGREM1 (ACRO)
Procedure: (§2) A transparent polystyrene culture plate (BEAVER) was coated with a high pH coating buffer containing 0.5 μg/ml hGREM1 (ACRO) and mouse gremlin (R&D) at 100 μl/well at 4° C. overnight. Then, the culture plate was washed once with PBS and 0.1% of Tween 20 (Sigma) on an automatic culture plate washer. 100 μl of a blocking solution consisting of PBS, 1% of BSA, 1% of standard goat serum and 0.50% of Tween 20 (Sigma) was added into each well for incubation at room temperature for 2 hours. Then, 100 μl of an antibody (started with 2 μg/ml and continuously diluted) in an antibody dilution buffer containing PBS, 1% of BSA, 1% of standard goat serum and 0.01% of Tween 20 was added into each well of the culture plate for incubation at room temperature for 1 hour. Then, the culture plate was washed with 200 μl of a solution containing PBS and 0.1% of Tween 20 for three times, and goat anti-mouse IgG-HRP (Abcam) at a ratio of 1:10000 was added at 100 μl/well for incubation at room temperature for 1 hour. Then, the culture plate was washed with a solution containing PBS and 0.1% of Tween 20 for 3 times. Finally, TMB (Pierce) was added into each well at 100 μl/well, and several minutes later, 50 μl of a termination solution was added into each well. The culture plate was read on a Multiscan FC microplate reader (Thermo Scientific) at 450 nM.

Human GREM1 = biological target: T2, Human GREM1 (Homo sapiens, UniProt O60565); experiment: Binding affinity to human GREM1 through ELISA; settings: for EC50 of binding to hGremlin-his: Table 17
T2 construct: His; purchased ACRO
T2 sequence (O60565 25-184): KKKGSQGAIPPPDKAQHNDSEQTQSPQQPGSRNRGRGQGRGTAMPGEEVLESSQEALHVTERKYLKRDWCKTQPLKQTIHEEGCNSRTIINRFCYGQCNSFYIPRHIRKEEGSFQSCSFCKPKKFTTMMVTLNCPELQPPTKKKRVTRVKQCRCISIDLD
Procedure: as §2, with “nM. As shown in Table 16 and Table 17, compared with a reference antibody 6245P, the anti-GREM1 antibody used in the present disclosure and other humanized anti-GREM1 antibodies (e.g., Hu14E3_HaLb, Hu14E3_HbLa, Hu14E3_HbLb, Hu14E3_HcLa and Hu14E3_HcLb) have better binding affinity with human GREM1.” for “nM.”

[5] = biological target: T1, human Gremlin/GREM1 protein (Acro); experiment: ELISA, binding to hGremlin-his
Procedure: as §2

[6] = biological target: human Gremlin/GREM1 protein (Acro) (human) (UniProt O60565); experiment: ELISA, coated hGREM1 (ACRO)
[7] = biological target: human Gremlin/GREM1 protein (Acro) (human) (UniProt O60565); experiment: BLI (ForteBio), human GREM1-his on NTA biosensor, antibody at 100, 50 and 25 nM
[8] = biological target: modified human GREM1-his (human) (UniProt O60565); experiment: blocking ELISA; competitor coated human BMP2; 1 ug/ml modified human GREM1-his detected with anti-his HRP
[9] = biological target: modified human GREM1-his (human) (UniProt O60565); experiment: blocking ELISA; competitor coated human BMP4; 1 ug/ml modified human GREM1-his detected with anti-his HRP
[10] = biological target: human Gremlin/GREM1 protein (Acro) (human) (UniProt O60565); experiment: ELISA, binding to hGremlin-his

Molecule: N.N.[Cl][Pt][Cl] [Cisplatin, reference compound]
TGI (%) [1]: 59.79%
Tumor size (mm^3, mean +/− S.E.M) [1]: 479.41 +/− 104.05 mm^3

Kd [2]: < 0.001 nM
Kd [3]: < 1 nM
EC50 [4]: 6.9 ng/mL
B1: Hu14E3_HaLa (antibody, human IgG1, kappa, V domains shown)
VH: QVQLVQSGSELKKPGASVKVSCKASGYTFTTYGMAWMRQAPGQGLEWMGWINTLSGEPTYADDFKGRFVFSLDTSVSTAYLQISSLKAEDTAVYYCAREPMDYWGQGTMVTVSS
VL: DVVMTQSPLSLPVTLGQPASISCKSSQSLLDSDGKTYLSWLQQRPGQSPRRLIYLVSKLDSGVPDRFSGSGSGTDFTLKISRVEAEDVGVYYCWQGAHFPLTFGQGTKLEIKR
notes: also called anti-GREM1 antibody used in the present disclosure; humanized 14E3

EC50 of binding to hGremlin-his (Human GREM1): 6.2 ng/mL
EC50 [5]: 6.2 ng/mL
B2: Hu14E3_HbLb (antibody, human IgG1, V domains shown)
VH: QIQLVQSGSELKKPGASVKVSCKASGYTFTTYGMAWMRQAPGQGLEWMGWINTLSGEPTYADDFKGRFAFSLDTSVSTAYLQISSLKAEDTAVYYCAREPMDYWGQGTMVTVSS
VL: DVVMTQSPLSLPVTLGQPASISCKSSQSLLDSDGKTYLSWLQQRPGQSPRRLISLVSKLDSGVPDRFSGSGSGTDFTLKISRVEAEDVGVYYCWQGAHFPLTFGQGTKLEIK
notes: also called humanized 14E3

EC50 (ng/ml) Human GREM1 (Human GREM1; Table 16): 6.90 ng/mL
EC50 of binding to hGremlin-his (Human GREM1): 6.9 ng/mL
B3: Hu14E3_HaLa: humanized 14E3, heavy chain variable region SEQ ID NO: 7, light chain variable region SEQ ID NO: 8; antibody used in the examples (antibody, V domains shown)
VH: QVQLVQSGSELKKPGASVKVSCKASGYTFTTYGMAWMRQAPGQGLEWMGWINTLSGEPTYADDFKGRFVFSLDTSVSTAYLQISSLKAEDTAVYYCAREPMDYWGQGTMVTVSS
VL: DVVMTQSPLSLPVTLGQPASISCKSSQSLLDSDGKTYLSWLQQRPGQSPRRLIYLVSKLDSGVPDRFSGSGSGTDFTLKISRVEAEDVGVYYCWQGAHFPLTFGQGTKLEIK
TGI (%) [1]: 42.92%
Tumor size (mm^3, mean +/− S.E.M) [1]: 680.59 +/− 163.73 mm^3

EC50 of binding to hGremlin-his (Human GREM1): 6.6 ng/mL
EC50 [5]: 6.6 ng/mL
B4: Hu14E3_HcLa (antibody, human IgG1, V domains shown)
VH: QIQLVQSGSELKKPGASVKVSCKASGSTFTTYGMAWMKQAPGQGLTWMGWINTLSGEPTYADDFKGRFAFSLDTSVSTAYLQISSLKAEDTAVYYCAREPMDYWGQGTMVTVSS
VL: DVVMTQSPLSLPVTLGQPASISCKSSQSLLDSDGKTYLSWLQQRPGQSPRRLIYLVSKLDSGVPDRFSGSGSGTDFTLKISRVEAEDVGVYYCWQGAHFPLTFGQGTKLEIK
notes: also called humanized 14E3

EC50 of binding to hGremlin-his (Human GREM1): 6.0 ng/mL
EC50 [5]: 6 ng/mL
B5: Hu14E3_HbLa (antibody, human IgG1, V domains shown)
VH: QIQLVQSGSELKKPGASVKVSCKASGYTFTTYGMAWMRQAPGQGLEWMGWINTLSGEPTYADDFKGRFAFSLDTSVSTAYLQISSLKAEDTAVYYCAREPMDYWGQGTMVTVSS
VL: DVVMTQSPLSLPVTLGQPASISCKSSQSLLDSDGKTYLSWLQQRPGQSPRRLIYLVSKLDSGVPDRFSGSGSGTDFTLKISRVEAEDVGVYYCWQGAHFPLTFGQGTKLEIK
notes: also called humanized 14E3

EC50 of binding to hGremlin-his (Human GREM1): 6.1 ng/mL
EC50 [5]: 6.1 ng/mL
B6: Hu14E3_HcLb (antibody, human IgG1, V domains shown)
VH: QIQLVQSGSELKKPGASVKVSCKASGSTFTTYGMAWMKQAPGQGLTWMGWINTLSGEPTYADDFKGRFAFSLDTSVSTAYLQISSLKAEDTAVYYCAREPMDYWGQGTMVTVSS
VL: DVVMTQSPLSLPVTLGQPASISCKSSQSLLDSDGKTYLSWLQQRPGQSPRRLISLVSKLDSGVPDRFSGSGSGTDFTLKISRVEAEDVGVYYCWQGAHFPLTFGQGTKLEIK
notes: also called humanized 14E3

EC50 of binding to hGremlin-his (Human GREM1): 5.6 ng/mL
EC50 [5]: 5.6 ng/mL
B7: Hu14E3_HaLb (antibody, human IgG1, V domains shown)
VH: QVQLVQSGSELKKPGASVKVSCKASGYTFTTYGMAWMRQAPGQGLEWMGWINTLSGEPTYADDFKGRFVFSLDTSVSTAYLQISSLKAEDTAVYYCAREPMDYWGQGTMVTVSS
VL: DVVMTQSPLSLPVTLGQPASISCKSSQSLLDSDGKTYLSWLQQRPGQSPRRLISLVSKLDSGVPDRFSGSGSGTDFTLKISRVEAEDVGVYYCWQGAHFPLTFGQGTKLEIK
notes: also called humanized 14E3

EC50 [6]: 57.5 ng/mL
Kd [7]: 2.58 nM
IC50 [8]: 797 ng/mL
IC50 [9]: 638 ng/mL
EC50 [10]: 57.5 ng/mL
B8: reference antibody 6245P (antibody, from another filing, IgG4, V domains shown)
VH: EVQLVESGGGLVQPGGSLRLSCAASGFTFNSFWMSWVRQAPGKGLEWVANIKQDGSEKYYVDSVKGRFTISRDNAKNSVYLQMNSLRAEDTAVYYCARDLVTSFDYWGQGTLVTVSS
VL: DIQMTQSPSSLSASVGDRVTITCQASQDINNYLNWYQQKPGKAPKLLIYDASYLETGVPSGFSGSGSGTDFTFTISSLQPEDIATYYCQQYDSLPYTFGQGTKLEIK
